Source: patent publication US20150231203A1 (UTI LIMITED PARTNERSHIP, published 2015)
No end group written: not given here.

T1: recombinant human USP5 short isoform (human, UniProt P45974-2 1-835)
T1 construct: Purified recombinant protein bought from EnzoLifeSciences; also called hUSP5 short; USP5 short isoform (835 amino acids)
T1 sequence (looked up): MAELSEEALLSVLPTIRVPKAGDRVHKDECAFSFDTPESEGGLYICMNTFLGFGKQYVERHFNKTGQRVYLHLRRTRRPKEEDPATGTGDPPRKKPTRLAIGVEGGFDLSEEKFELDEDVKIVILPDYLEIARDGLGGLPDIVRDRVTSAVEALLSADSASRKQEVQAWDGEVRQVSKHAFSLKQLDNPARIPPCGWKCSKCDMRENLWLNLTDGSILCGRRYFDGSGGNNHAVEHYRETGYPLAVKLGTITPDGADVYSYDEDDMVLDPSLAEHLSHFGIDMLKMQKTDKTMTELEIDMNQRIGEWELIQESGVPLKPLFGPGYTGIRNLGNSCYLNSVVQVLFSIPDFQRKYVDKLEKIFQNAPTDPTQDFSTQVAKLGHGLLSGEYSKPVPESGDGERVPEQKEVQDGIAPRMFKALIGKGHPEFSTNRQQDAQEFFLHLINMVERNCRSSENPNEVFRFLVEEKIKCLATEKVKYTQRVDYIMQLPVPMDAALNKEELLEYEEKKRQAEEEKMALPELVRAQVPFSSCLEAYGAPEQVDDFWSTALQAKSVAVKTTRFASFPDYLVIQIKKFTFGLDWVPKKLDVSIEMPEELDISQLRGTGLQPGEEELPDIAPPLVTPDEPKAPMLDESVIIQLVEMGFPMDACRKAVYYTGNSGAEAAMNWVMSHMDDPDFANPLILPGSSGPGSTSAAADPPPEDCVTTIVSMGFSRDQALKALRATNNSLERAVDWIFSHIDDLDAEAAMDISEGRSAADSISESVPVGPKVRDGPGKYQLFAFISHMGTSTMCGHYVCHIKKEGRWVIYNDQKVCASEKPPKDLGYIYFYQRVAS

T2: recombinant human USP5 long isoform (human, UniProt P45974 1-858)
T2 construct: Purified recombinant protein bought from EnzoLifeSciences; also called hUSP5 long; USP5 long isoform (858 amino acids)
T2 sequence: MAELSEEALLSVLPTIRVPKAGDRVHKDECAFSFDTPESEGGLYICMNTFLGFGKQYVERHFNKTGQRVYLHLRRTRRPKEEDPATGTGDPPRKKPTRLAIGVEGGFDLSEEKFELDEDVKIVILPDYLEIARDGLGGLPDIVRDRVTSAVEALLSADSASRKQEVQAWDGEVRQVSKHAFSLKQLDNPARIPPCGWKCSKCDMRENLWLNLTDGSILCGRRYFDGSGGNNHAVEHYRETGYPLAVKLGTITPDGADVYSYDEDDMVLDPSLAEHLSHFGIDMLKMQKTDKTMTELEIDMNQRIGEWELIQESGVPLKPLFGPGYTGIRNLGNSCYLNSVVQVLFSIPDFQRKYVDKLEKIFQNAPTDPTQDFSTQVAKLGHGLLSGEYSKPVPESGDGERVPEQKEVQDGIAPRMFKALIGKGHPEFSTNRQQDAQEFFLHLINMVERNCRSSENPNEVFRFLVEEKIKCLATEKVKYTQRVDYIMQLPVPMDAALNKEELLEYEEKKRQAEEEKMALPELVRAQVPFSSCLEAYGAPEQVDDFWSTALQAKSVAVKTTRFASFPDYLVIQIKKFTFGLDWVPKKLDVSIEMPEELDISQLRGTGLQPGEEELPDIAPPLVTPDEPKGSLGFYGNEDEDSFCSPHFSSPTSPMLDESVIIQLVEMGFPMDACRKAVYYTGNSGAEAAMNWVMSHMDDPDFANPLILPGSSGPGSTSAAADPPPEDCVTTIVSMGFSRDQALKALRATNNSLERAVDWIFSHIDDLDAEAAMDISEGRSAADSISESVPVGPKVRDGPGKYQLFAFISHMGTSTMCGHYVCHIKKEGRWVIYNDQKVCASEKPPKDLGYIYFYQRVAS

B1: human biotin-Cav3.2 1556-1602 III-IV linker peptide (peptide, UniProt O95180-2 1556-1602, looked up)
peptide: ENFHKCRQHQEAEEARRREEKRLRRLERRRRKAQRRPYYADYSPTRR-biotin
modifications: not fully specified
notes: Synthetic peptide containing the PY motif; also called long III-IV linker
B2: human biotin-Cav3.2 1860-1884 C-terminus peptide (peptide, UniProt O95180-2 1860-1884, looked up)
peptide: SNKEAREDAELDAEIELEMAQGPGS-biotin
modifications: not fully specified
notes: Control peptide; also called hCav3.21860-1884 (CT); Cav3.2 C-terminus peptide
B3: USP5 (mouse, endogenous, from brain, DRG or dorsal horn lysate) (enzyme, UniProt P56399 2-858, looked up)
chain: AELSEEALLSVLPTIRVPKAGDRVHKDECAFSFDTPESEGGLYICMNTFLGFGKQYVERHFNKTGQRVYLHLRRTRRPKEEDTSAGTGDPPRKKPTRLAIGVEGGFDLTEDKFEFDEDVKIVILPDYLEIARDGLGGLPDIVRDRVTSAVEALLSADSASRKQEVQAWDGEVRQVSKHAFNLKQLDNPARIPPCGWKCSKCDMRENLWLNLTDGSILCGRRYFDGSGGNNHAVEHYRETGYPLAVKLGTITPDGADVYSYDEDDMVLDPSLAEHLSHFGIDMLKMQKTDKTMTELEIDMNQRIGEWELIQESGVPLKPLFGPGYTGIRNLGNSCYLNSVVQVLFSIPDFQRKYVDKLEKIFQNAPTDPTQDFSTQVAKLGHGLLSGEYSKPALESGDGEQVPEQKEVQDGIAPRMFKALIGKGHPEFSTNRQQDAQEFFLHLINMVERNCRSSENPNEVFRFLVEEKIKCLATEKVKYTQRVDYIMQLPVPMDAALNKEELLEYEEKKRQAEEEKVPLPELVRAQVPFSSCLEAYGAPEQVDDFWSTALQAKSVAVKTTRFASFPDYLVIQIKKFTFGLDWVPKKLDVSIEMPEELDISQLRGTGLQPGEEELPDIAPPLVTPDEPKGSLGFYGNEDEDSFCSPHFSSPTSPMLDESVIIQLVEMGFPMDACRKAVYYTGNSGAEAAMNWVMSHMDDPDFANPLILPGSSGPGSTSAAADPPPEDCVTTIVSMGFSRDQALKALRATNNSLERAVDWIFSHIDDLDAEAAMDISEGRSAAESISESVPVGPKVRDGPGKYQLFAFISHMGTSTMCGHYVCHIKKEGRWVIYNDQKVCASEKPPKDLGYIYFYQRVVS
B4: human biotin-Cav3.2 1569-1586 short III-IV linker peptide (peptide, UniProt O95180-2 1569-1586, looked up)
peptide: EARRREEKRLRRLERRRR
modifications: also: biotin, position not given here
notes: range 1569-1586; Synthetic peptide lacking the PY motif; also called hCav3.21569-1586; 18 amino acid short peptide lacking the PY motif
B5: biotin-Tat-3.2 III-IV 1569-1589 linker peptide (peptide)
peptide: YGRKKRRQRRREARRREEKRLRRLERRRRKAQ
modifications: not fully specified (N-terminus); also: biotin, position not given here
notes: also called biotinylated Cav3.21569-1589 III-IV linker peptide; Tat-Cav3.21569-1589 III-IV linker peptide
B6: Tat-Cav3.2 1569-1589 III-IV linker peptide (non-biotinylated) (peptide)
peptide: YGRKKRRQRRREARRREEKRLRRLERRRRKAQ
notes: also called Tat-3.2-III-IV1569-1589 linker; Tat-3.2-III-IV

Key:
[1] = target: T1, recombinant human USP5 short isoform; assay: in vitro binding assay of purified recombinant USP5 to biotinylated peptide, western blot
[2] = target: T2, recombinant human USP5 long isoform; assay: as above
[3] = target: T3, WWP1 (mouse, endogenous, from DRG lysate) (mouse, UniProt Q8BZZ3 1-918); assay: affinity precipitation from mouse DRG lysate with biotinylated peptide, western blot for WWP1
T3 construct: also called HECT E3 ligase WWP1

[4] = target: B3; assay: affinity precipitation from mouse brain lysate with biotinylated peptide, western blot for USP5
[5] = target: Cav3.2 channel (mouse, endogenous full-length channel from DRG, brain or dorsal horn) (mouse, UniProt O88427 1-2365, limits assumed); assay: cell-based or functional assay
[6] = target: B3; assay: affinity precipitation from mouse brain lysate with biotinylated Tat peptide (25 µg), western blot for USP5
[7] = target: B3; assay: in vitro competition by affinity precipitation from mouse brain lysate; competitor 50 µg against biotin-Tat peptide 25 µg

Sequence of Cav3.2 channel (mouse, endogenous full-length channel from DRG, brain or dorsal horn) (O88427 whole entry): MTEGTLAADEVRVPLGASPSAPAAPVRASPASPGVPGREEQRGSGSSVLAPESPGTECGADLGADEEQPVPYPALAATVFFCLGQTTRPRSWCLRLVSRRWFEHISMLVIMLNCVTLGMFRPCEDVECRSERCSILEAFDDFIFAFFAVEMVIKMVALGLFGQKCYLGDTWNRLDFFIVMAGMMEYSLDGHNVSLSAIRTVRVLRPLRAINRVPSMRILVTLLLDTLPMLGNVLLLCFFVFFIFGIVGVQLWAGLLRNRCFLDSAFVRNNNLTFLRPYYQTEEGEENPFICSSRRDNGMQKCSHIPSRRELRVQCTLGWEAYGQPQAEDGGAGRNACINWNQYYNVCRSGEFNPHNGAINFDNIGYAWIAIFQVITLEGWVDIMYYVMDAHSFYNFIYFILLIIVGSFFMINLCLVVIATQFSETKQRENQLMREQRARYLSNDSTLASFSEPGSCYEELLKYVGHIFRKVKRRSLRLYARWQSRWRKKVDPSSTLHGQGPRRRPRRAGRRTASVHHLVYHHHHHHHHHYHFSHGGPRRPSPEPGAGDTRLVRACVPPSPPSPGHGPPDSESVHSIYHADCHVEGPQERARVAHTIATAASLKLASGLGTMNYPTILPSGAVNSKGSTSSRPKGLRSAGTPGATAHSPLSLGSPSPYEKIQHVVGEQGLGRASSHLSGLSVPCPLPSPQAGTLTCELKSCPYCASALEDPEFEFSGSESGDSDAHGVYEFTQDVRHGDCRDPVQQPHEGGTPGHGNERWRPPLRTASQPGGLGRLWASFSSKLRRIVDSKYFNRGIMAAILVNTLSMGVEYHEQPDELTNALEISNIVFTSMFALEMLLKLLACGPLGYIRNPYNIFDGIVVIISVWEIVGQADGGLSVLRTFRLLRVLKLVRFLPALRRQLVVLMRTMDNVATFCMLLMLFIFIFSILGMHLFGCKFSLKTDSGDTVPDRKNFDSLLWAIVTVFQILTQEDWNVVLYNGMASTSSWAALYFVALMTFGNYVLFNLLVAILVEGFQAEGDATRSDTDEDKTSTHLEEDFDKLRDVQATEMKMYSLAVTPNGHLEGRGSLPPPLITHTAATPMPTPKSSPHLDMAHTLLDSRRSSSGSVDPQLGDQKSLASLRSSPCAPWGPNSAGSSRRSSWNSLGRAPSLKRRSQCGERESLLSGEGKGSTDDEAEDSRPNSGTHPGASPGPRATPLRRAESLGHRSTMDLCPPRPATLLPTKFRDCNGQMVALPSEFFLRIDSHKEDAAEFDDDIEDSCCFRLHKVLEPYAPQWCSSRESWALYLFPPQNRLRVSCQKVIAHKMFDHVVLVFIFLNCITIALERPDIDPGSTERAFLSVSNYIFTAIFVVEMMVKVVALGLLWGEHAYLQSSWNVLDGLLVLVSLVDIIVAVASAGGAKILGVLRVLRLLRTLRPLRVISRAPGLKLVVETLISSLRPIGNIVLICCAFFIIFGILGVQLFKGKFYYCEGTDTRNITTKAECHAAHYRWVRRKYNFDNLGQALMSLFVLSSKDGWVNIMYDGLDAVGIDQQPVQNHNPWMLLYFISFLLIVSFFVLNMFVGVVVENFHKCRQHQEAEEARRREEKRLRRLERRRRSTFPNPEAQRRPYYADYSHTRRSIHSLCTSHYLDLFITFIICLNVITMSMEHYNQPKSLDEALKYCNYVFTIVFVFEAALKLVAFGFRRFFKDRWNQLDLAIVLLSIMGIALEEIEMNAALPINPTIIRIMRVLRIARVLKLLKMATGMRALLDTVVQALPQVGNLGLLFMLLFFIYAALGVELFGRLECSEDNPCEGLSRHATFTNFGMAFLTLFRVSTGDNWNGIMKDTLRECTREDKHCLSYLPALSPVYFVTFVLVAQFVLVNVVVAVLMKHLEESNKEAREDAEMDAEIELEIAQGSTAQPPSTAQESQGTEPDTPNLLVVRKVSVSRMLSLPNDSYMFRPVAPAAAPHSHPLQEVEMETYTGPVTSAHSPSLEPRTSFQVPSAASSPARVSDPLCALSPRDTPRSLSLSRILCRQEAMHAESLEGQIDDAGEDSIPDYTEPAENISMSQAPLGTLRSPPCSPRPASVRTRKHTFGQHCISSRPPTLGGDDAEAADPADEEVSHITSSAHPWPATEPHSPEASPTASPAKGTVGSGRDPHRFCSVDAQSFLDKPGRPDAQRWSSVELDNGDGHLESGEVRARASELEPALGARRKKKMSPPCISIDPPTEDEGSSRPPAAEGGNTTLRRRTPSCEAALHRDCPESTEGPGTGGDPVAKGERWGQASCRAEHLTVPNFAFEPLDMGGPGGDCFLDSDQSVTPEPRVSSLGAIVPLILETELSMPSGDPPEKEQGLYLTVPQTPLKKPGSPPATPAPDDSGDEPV

Row | Binder | binding result [1] | binding result [2] | binding result [3] | binding result [4] | further results
1 | B1 | binds | binds | binds | binds | –
2 | B2 | no binding | no binding | – | no binding | –
3 | B3 | – | – | – | – | channel ubiquitination of Cav3.2 immunoprecipitates from CAD cells transfected with USP5-shRNA against USP15-shRNA [5]: ~5 fold
4 | B4 | – | – | binds | – | –
5 | B5 | – | – | – | – | binding result [6]: binds
6 | B6 | – | – | – | – | binding result [7]: binds
